# IntAct's records for PubMed 19250911
# B1: Next to BRCA1 gene 1 protein (Homo sapiens), Q14596 (parent)
# chain: MEPQVTLNVTFKNEIQSFLVSDPENTTWADIEAMVKVSFDLNTIQIKYLDEENEEVSINSQGEYEEALKMAVKQGNQLQMQVHEGHHVVDEAPPPVVGAKRLAARAGKKPLAHYSSLVRVLGSDMKTPEDPAVQSFPLVPCDTDQPQDKPPDWFTSYLETFREQVVNETVEKLEQKLHEKLVLQNPSLGSCPSEVSMPTSEETLFLPENQFSWHIACNNCQRRIVGVRYQCSLCPSYNICEDCEAGPYGHDTNHVLLKLRRPVVGSSEPFCHSKYSTPRLPAALEQVRLQKQVDKNFLKAEKQRLRAEKKQRKAEVKELKKQLKLHRKIHLWNSIHGLQSPKSPLGRPESLLQSNTLMLPLQPCTSVMPMLSAAFVDENLPDGTHLQPGTKFIKHWRMKNTGNVKWSADTKLKFMWGNLTLASTEKKDVLVPCLKAGHVGVVSVEFIAPALEGTYTSHWRLSHKGQQFGPRVWCSIIVDPFPSEESPDNIEKGMISSSKTDDLTCQQEETFLLAKEERQLGEVTEQTEGTAACIPQKAKNVASERELYIPSVDLLTAQDLLSFELLDINIVQELERVPHNTPVDVTPCMSPLPHDSPLIEKPGLGQIEEENEGAGFKALPDSMVSVKRKAENIASVEEAEEDLSGTQFVCETVIRSLTLDAAPDHNPPCRQKSLQMTFALPEGPLGNEKEEIIHIAEEEAVMEEEEDEEDEEEEDELKDEVQSQSSASSEDYIIILPECFDTSRPLGDSMYSSALSQPGLERGAEGKPGVEAGQEPAEAGERLPGGENQPQEHSISDILTTSQTLETVPLIPEVVELPPSLPRSSPCVHHHGSPGVDLPVTIPEVSSVPDQIRGEPRGSSGLVNSRQKSYDHSRHHHGSSIAGGLVKGALSVAASAYKALFAGPPVTAQPIISEDQTAALMAHLFEMGFCDRQLNLRLLKKHNYNILQVVTELLQLNNNDWYSQRY
# B2: Next to BRCA1 gene 1 protein (Homo sapiens), Q14596 (parent)
# chain: B1 chain
# partner: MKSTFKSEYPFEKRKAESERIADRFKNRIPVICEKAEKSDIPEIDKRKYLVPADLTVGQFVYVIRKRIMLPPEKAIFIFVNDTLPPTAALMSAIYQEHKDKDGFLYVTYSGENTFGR
# How the values were obtained:
# [1] = variants of: B1; conditions: with gbrap_human GABARAP
# [2] = variants of: B1; conditions: with gbrl2_human GABARAPL2, P60520
# [3] = variants of: B1; conditions: with mlp3b_human MAP1LC3B
# [4] = variants of: B2; conditions: with atg8_yeast ATG8, P38182
# Chain of gbrl2_human GABARAPL2, P60520 (P60520 whole entry): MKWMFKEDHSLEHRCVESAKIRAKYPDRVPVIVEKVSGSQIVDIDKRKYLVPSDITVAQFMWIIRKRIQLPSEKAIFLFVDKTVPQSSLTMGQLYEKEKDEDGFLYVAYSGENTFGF
effect of a mutation on the interaction [1],effect of a mutation on the interaction [2],effect of a mutation on the interaction [3],effect of a mutation on the interaction [4],Variant
decreasing interaction,decreasing interaction,decreasing interaction,–,Y732A
–,–,–,decreasing interaction,Y732A
